This passage reports stoichiometry N results from publication PMC7055914.

Broadly, the stoichiometry N is a count of units in the complex or per binding partner.

The target of this assay is S. Typhi PltB (pertussis-like toxin B subunit) homopentamer (Salmonella enterica serovar Typhi) (UniProt Q8Z6A3). As to the kind of experiment: […], sodium acetate pH 4.4) […].

Turning to “S. Typhi PltB (pertussis-like toxin B subunit) homopentamer (from UniProt Q8Z6A3) (natural protein)”, the stoichiometry N amounted to 5.
